Reference: US20080020978A1 (Amgen, published 2008)
Square brackets hold non-standard residues; d marks the D form. Tpi = O=C(O)[C@@H]1Cc2c([nH]c3ccccc23)CN1; hArg = N=C(N)NCCCC[C@H](N)C(=O)O; Cit = NC(=O)NCCC[C@H](N)C(=O)O

B1: SEQ ID NO 38 (peptide)
peptide: Ac-WVTHRLAGLLSQSGGVVRKNFVPTDVGPFAF-NH2
modifications: not fully specified (residue 19); printed as Ac-WVTHRLAGLLSQSGGVVRKNFVPTDVGPFAF-NH2
B2: SEQ ID NO 36 (peptide)
peptide: Ac-WVTHRLAGLLSQSGGVVRCNFVPTDVGPFAF-NH2
modifications: not fully specified (residue 19); printed as Ac-WVTHRLAGLLSQSGGVVRCNFVPTDVGPFAF-NH2
B3: SEQ ID NO 13 (peptide)
peptide: Ac-WVTHRLAGLLSRSGGVVKNNFVPTDVGPFAF-NH2
modifications: not fully specified (residue 18); printed as Ac-WVTHRLAGLLSRSGGVVKNNFVPTDVGPFAF-NH2
B4: SEQ ID NO 12 (peptide)
peptide: Ac-WVTHRLAGLLSRSGGVVKNNFVPTDVGPFAF-NH2
modifications: not fully specified (residue 18); printed as Ac-WVTHRLAGLLSRSGGVVKNNFVPTDVGPFAF-NH2
B5: SEQ ID NO 42 (peptide)
peptide: Ac-WVTHRLAGLLS[dR]SGGVVRCNFVPTDVGPFAF-NH2
modifications: not fully specified (residue 19); printed as Ac-WVTHRLAGLLSrSGGVVRCNFVPTDVGPFAF-NH2
B6: SEQ ID NO 676 (peptide)
peptide: Ac-WVTH[Cit]LAGLLS[Cit]SGGVV[hArg]KNFVPTDVGP[Tpi]AF-NH2
SMILES: CC(=O)N[C@@H](Cc1c[nH]c2ccccc12)C(=O)N[C@H](C(=O)N[C@H](C(=O)N[C@@H](Cc1c[nH]cn1)C(=O)N[C@@H](CCCNC(N)=O)C(=O)N[C@@H](CC(C)C)C(=O)N[C@@H](C)C(=O)NCC(=O)N[C@@H](CC(C)C)C(=O)N[C@@H](CC(C)C)C(=O)N[C@@H](CO)C(=O)N[C@@H](CCCNC(N)=O)C(=O)N[C@@H](CO)C(=O)NCC(=O)NCC(=O)N[C@H](C(=O)N[C@H](C(=O)N[C@@H](CCCCNC(=N)N)C(=O)N[C@@H](CCCCN)C(=O)N[C@@H](CC(N)=O)C(=O)N[C@@H](Cc1ccccc1)C(=O)N[C@H](C(=O)N1CCC[C@H]1C(=O)N[C@H](C(=O)N[C@@H](CC(=O)O)C(=O)N[C@H](C(=O)NCC(=O)N1CCC[C@H]1C(=O)N1Cc2[nH]c3ccccc3c2C[C@H]1C(=O)N[C@@H](C)C(=O)N[C@@H](Cc1ccccc1)C(N)=O)C(C)C)[C@@H](C)O)C(C)C)C(C)C)C(C)C)[C@@H](C)O)C(C)C
B7: SEQ ID NO 14 (peptide)
peptide: Ac-WVTHRLAGLLSRSGGVVCNNFVPTDVGPFAF-NH2
modifications: not fully specified (residue 18); printed as Ac-WVTHRLAGLLSRSGGVVCNNFVPTDVGPFAF-NH2
B8: SEQ ID NO 19 (peptide)
peptide: Ac-WVTHRLAGLLSRSGGVKRNNFVPTDVGPFAF-NH2
modifications: not fully specified (residue 17); printed as Ac-WVTHRLAGLLSRSGGVKRNNFVPTDVGPFAF-NH2
B9: SEQ ID NO 17 (peptide)
peptide: Ac-WVTHRLAGLLSRSGGVVRCNFVPTDVGPFAF-NH2
modifications: not fully specified (residue 19); printed as Ac-WVTHRLAGLLSRSGGVVRCNFVPTDVGPFAF-NH2
B10: SEQ ID NO 34 (peptide)
peptide: Ac-WVTHRLAGLLSASGGVVRCNFVPTDVGPFAF-NH2
modifications: not fully specified (residue 19); printed as Ac-WVTHRLAGLLSASGGVVRCNFVPTDVGPFAF-NH2
B11: SEQ ID NO 41 (peptide)
peptide: Ac-WVTHRLAGLLS[dR]SGGVVRCNFVPTDVGPFAF-NH2
SMILES: CC(=O)N[C@@H](Cc1c[nH]c2ccccc12)C(=O)N[C@H](C(=O)N[C@H](C(=O)N[C@@H](Cc1c[nH]cn1)C(=O)N[C@@H](CCCNC(=N)N)C(=O)N[C@@H](CC(C)C)C(=O)N[C@@H](C)C(=O)NCC(=O)N[C@@H](CC(C)C)C(=O)N[C@@H](CC(C)C)C(=O)N[C@@H](CO)C(=O)N[C@H](CCCNC(=N)N)C(=O)N[C@@H](CO)C(=O)NCC(=O)NCC(=O)N[C@H](C(=O)N[C@H](C(=O)N[C@@H](CCCNC(=N)N)C(=O)N[C@@H](CS)C(=O)N[C@@H](CC(N)=O)C(=O)N[C@@H](Cc1ccccc1)C(=O)N[C@H](C(=O)N1CCC[C@H]1C(=O)N[C@H](C(=O)N[C@@H](CC(=O)O)C(=O)N[C@H](C(=O)NCC(=O)N1CCC[C@H]1C(=O)N[C@@H](Cc1ccccc1)C(=O)N[C@@H](C)C(=O)N[C@@H](Cc1ccccc1)C(N)=O)C(C)C)[C@@H](C)O)C(C)C)C(C)C)C(C)C)[C@@H](C)O)C(C)C
B12: SEQ ID NO 40 (peptide)
peptide: Ac-WVTHQLAGLLSQSGGVVRKNFVPTDVGPFAF-NH2
modifications: not fully specified (residue 19); printed as Ac-WVTHQLAGLLSQSGGVVRKNFVPTDVGPFAF-NH2

molecular target: T1, CGRP1 receptor (CRLR/RAMP1 complex) of human neuroblastoma SK-N-MC cells (human, UniProt Q16602 23-461; O60894 27-148); assay: cell-based or functional assay
T1 sequence (Q16602 23-461, chain 1 of 2): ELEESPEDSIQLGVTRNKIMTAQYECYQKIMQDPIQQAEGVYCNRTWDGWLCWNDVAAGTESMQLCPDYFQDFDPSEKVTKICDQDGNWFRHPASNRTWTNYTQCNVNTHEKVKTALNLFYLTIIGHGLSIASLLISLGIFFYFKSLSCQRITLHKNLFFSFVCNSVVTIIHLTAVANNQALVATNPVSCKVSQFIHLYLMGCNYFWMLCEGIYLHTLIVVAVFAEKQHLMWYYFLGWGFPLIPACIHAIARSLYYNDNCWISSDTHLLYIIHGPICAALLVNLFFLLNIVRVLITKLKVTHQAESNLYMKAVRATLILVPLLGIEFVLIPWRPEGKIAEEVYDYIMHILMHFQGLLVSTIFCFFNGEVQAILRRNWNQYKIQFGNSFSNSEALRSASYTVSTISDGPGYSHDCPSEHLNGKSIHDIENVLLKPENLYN
T1 sequence (O60894 27-148, chain 2 of 2): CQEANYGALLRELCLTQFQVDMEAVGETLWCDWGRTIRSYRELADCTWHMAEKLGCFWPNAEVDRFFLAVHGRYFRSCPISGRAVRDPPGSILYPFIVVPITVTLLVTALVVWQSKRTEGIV

For B1, which “fold change in potency against SEQ ID NO:36” value is on record?
Its value is over 42 fold.

With B2 as the binder, how does the “fold loss of antagonist activity against SEQ ID NO:35” value read?
The value was over 12 fold.

How did the “fold loss of antagonist activity against SEQ ID NO:21 and 23” value turn out when WVTHXLAGLLSXSGGVVRKNFVPTDVGPFAF (Ac-WVTH(hR)LAGLLS(hR)SGGVVRKNFVPTDVGPFAF-NH2) [SEQ ID NO 25] was run?
Its value is about 5 fold.

For WVTHXLAGLLSXSGGVVRKNFVPTDVGPFAF (Ac-WVTH(Cit)LAGLLS(Cit)SGGVVRKNFVPTDVGPFAF-NH2) [SEQ ID NO 31], which “fold loss of potency against SEQ ID NO:27 and 29” value is on record?
The value was about 3 fold.

Which “fold loss of antagonist activity against SEQ ID NO:5” value does the source give for B3 here?
The value was over 15 fold.

For B4, which “fold loss of antagonist activity against SEQ ID NO:5” value is on record?
The value was over 15 fold.

Which “fold loss of antagonist activity against SEQ ID NO:41” value does the source give for B5 here?
Its value is over 32 fold.

molecular target: T1, CGRP1 receptor (CRLR/RAMP1 complex) of …; assay: cell-based or functional assay; remark: another data set of the same source

How did the “IC50” value turn out when WVTHXLAGLLSXSGGVVXKNXVXTDVGPXAF (Ac-WVTH[Cit]LAGLLS[Cit]SGGVV[hArg]KN[pI-Phe]V[Oic]TDVGP[pI-Phe]AF-NH2) [SEQ ID NO 136] was run?
Its value is 2.34 nM.

For B6, which “IC50” value is on record?
The value was 79.3 nM.

For WVTHXLAGLLSXSGGVVXKNFVXTDVGXFAX (Ac-WVTH[Cit]LAGLLS[Cit]SGGVV[hArg]KNFV[Oic]TDVG[Oic]FA[2-Nal]-NH2) [SEQ ID NO 132], which “IC50” value is on record?
The value was 2.57 nM.

WVTHXLAGLLSXSGGVVXKNFVXTDVGPFAX (Ac-WVTH[Cit]LAGLLS[Cit]SGGVV[hArg]KNFV[Oic]TDVGPFA[2-Nal]-NH2) [SEQ ID NO 135] was tested. Which “IC50” value did it give?
The value was 3.22 nM.

For WVTHXLAGLLSXSGGVVXKNFVXTDVGPXAX (Ac-WVTH[Cit]LAGLLS[Cit]SGGVV[hArg]KNFV[Oic]TDVGP[1-Nal]A[2-Nal]-NH2) [SEQ ID NO 133], which “IC50” value is on record?
The value was 2.73 nM.

WVTHXLAGLLSXSGGVVXKNFVXTDVGPXAF (Ac-WVTH[Cit]LAGLLS[Cit]SGGVV[hArg]KNFV[Oic]TDVGP[Bip]AF-NH2) [SEQ ID NO 134] was tested. Which “IC50” value did it give?
Its value is 3.85 nM.

molecular target: T1, CGRP1 receptor (CRLR/RAMP1 complex) of …; assay: cell-based or functional assay; remark: another data set of the same source

Which “IC50” value does the source give for B7 here?
Its value is 2.2 nM.

How did the “IC50” value turn out when B8 was run?
The value was 0.98 nM.

With B3 as the binder, how does the “IC50” value read?
The value was 2.15 nM.

For B9, which “IC50” value is on record?
The value was 1.9 nM.

How did the “IC50” value turn out when B4 was run?
Its value is 3.05 nM.

molecular target: T1, CGRP1 receptor (CRLR/RAMP1 complex) of …; assay: cell-based or functional assay; remark: another data set of the same source

For B1, which “IC50” value is on record?
Its value is 0.11 nM.

Ac-WVTHRLAGLLSASGGVVRCNFVPTDVGPFAF-NH2 [SEQ ID NO 33] was tested. Which “IC50” value did it give?
Its value is 2.75 nM.

B10 was tested. Which “IC50” value did it give?
Its value is 6.2 nM.

For Ac-WVTHRLAGLLSQSGGVVRCNFVPTDVGPFAF-NH2 [SEQ ID NO 35], which “IC50” value is on record?
The value was 0.37 nM.

For B2, which “IC50” value is on record?
Its value is 4.69 nM.

For WVTHXLAGLLSRSGGVVRKNFVPTDVGPFAF (Ac-WVTH(hR)LAGLLSRSGGVVRKNFVPTDVGPFAF-NH2) [SEQ ID NO 21], which “IC50” value is on record?
The value was 0.44 nM.

For WVTHRLAGLLSXSGGVVRKNFVPTDVGPFAF (Ac-WVTHRLAGLLS(hR)SGGVVRKNFVPTDVGPFAF-NH2; 20 k Da PEG, Amine linkage) [SEQ ID NO 24], which “IC50” value is on record?
The value was 0.33 nM.

Which “IC50” value does the source give for WVTHXLAGLLSRSGGVVRKNFVPTDVGPFAF (Ac-WVTH(hR)LAGLLSRSGGVVRKNFVPTDVGPFAF-NH2; 20 k Da PEG, Amine linkage) [SEQ ID NO 22] here?
Its value is 0.36 nM.

WVTHRLAGLLSXSGGVVRKNFVPTDVGPFAF (Ac-WVTHRLAGLLS(hR)SGGVVRKNFVPTDVGPFAF-NH2) [SEQ ID NO 23] was tested. Which “IC50” value did it give?
Its value is 0.57 nM.

For WVTHXLAGLLSXSGGVVRKNFVPTDVGPFAF (Ac-WVTH(hR)LAGLLS(hR)SGGVVRKNFVPTDVGPFAF-NH2; 20 k Da PEG, Amine linkage) [SEQ ID NO 26], which “IC50” value is on record?
The value was 0.37 nM.

WVTHXLAGLLSXSGGVVRKNFVPTDVGPFAF (Ac-WVTH(Cit)LAGLLS(Cit)SGGVVRKNFVPTDVGPFAF-NH2; 20 k Da PEG, Amine linkage) [SEQ ID NO 32] was tested. Which “IC50” value did it give?
Its value is 3.74 nM.

Which “IC50” value does the source give for WVTHRLAGLLSXSGGVVRKNFVPTDVGPFAF (Ac-WVTHRLAGLLS(Cit)SGGVVRKNFVPTDVGPFAF-NH2) [SEQ ID NO 29] here?
The value was 0.58 nM.

For WVTHXLAGLLSRSGGVVRKNFVPTDVGPFAF (Ac-WVTH(Cit)LAGLLSRSGGVVRKNFVPTDVGPFAF-NH2) [SEQ ID NO 27], which “IC50” value is on record?
The value was 0.57 nM.

Which “IC50” value does the source give for WVTHXLAGLLSRSGGVVRKNFVPTDVGPFAF (Ac-WVTH(Cit)LAGLLSRSGGVVRKNFVPTDVGPFAF-NH2; 20 k Da PEG, Amine linkage) [SEQ ID NO 28] here?
The value was 2.08 nM.

How did the “IC50” value turn out when WVTHXLAGLLSXSGGVVRKNFVPTDVGPFAF (Ac-WVTH(hR)LAGLLS(hR)SGGVVRKNFVPTDVGPFAF-NH2) [SEQ ID NO 25] was run?
The value was 2.1 nM.

WVTHRLAGLLSXSGGVVRKNFVPTDVGPFAF (Ac-WVTHRLAGLLS(Cit)SGGVVRKNFVPTDVGPFAF-NH2; 20 k Da PEG, Amine linkage) [SEQ ID NO 30] was tested. Which “IC50” value did it give?
Its value is 0.96 nM.

How did the “IC50” value turn out when WVTHXLAGLLSXSGGVVRKNFVPTDVGPFAF (Ac-WVTH(Cit)LAGLLS(Cit)SGGVVRKNFVPTDVGPFAF-NH2) [SEQ ID NO 31] was run?
Its value is 1.8 nM.

Which “IC50” value does the source give for Ac-WVTHRLAGLLSQSGGVVRKNFVPTDVGPFAF-NH2 [SEQ ID NO 37] here?
Its value is 0.56 nM.

For B11, which “IC50” value is on record?
The value was 0.59 nM.

For B12, which “IC50” value is on record?
The value was 1.33 nM.

With Ac-WVTHQLAGLLSQSGGVVRKNFVPTDVGPFAF-NH2 [SEQ ID NO 39] as the binder, how does the “IC50” value read?
The value was 0.53 nM.

Which “IC50” value does the source give for B5 here?
The value was 19.4 nM.

molecular target: T1, CGRP1 receptor (CRLR/RAMP1 complex) of …; assay: 125I-hαCGRP competition, SK-N-MC membranes
Experimental: CGRP₁ binding experiments. […] The plates were incubated at room temperature for 2 hour with shaking at 60 rpm, then the contents of each well were filtered over 0.5% polyethyleneimine (PEI)-treated (at least one hour) GF/C 96-well filter plates. The GF/C filter plates were washed 6 times with ice-cold 50 mM Tris, pH 7.5 and dried in an oven at 55 C for 1 hour. The bottoms of the GF/C plates were then sealed, and 40 μl Microscint™ 20 was added to each well, then the tops of the GF/C plates were sealed with TopSeal™-A, a press-on adhesive sealing film, and the GF/C plates were counted with TopCount NXT (Packard). The data were analyzed by using ActivityBase (IDBS) or Prizm (GraphPad) software.

How did the Ki turn out when WVTHXLAGLLSXSGGVVRKNFVPTDVGPFAF (Ac-WVTH(Cit)LAGLLS(Cit)SGGVVRKNFVPTDVGPFAF-NH2) [SEQ ID NO 31] was run?
Its Ki is 0.46 nM.
